Source: PMC12441935, “De novo designed 3-helix bundle peptides and proteins with controlled topology and stability” (Chemical Science, 2025)

Molecular target: the molecule itself
Test: AUC; sedimentation velocity and sedimentation equilibrium of the individual peptides N and N′, 20 °C

| Protein | stoichiometry N |
| --- | --- |
| KLAALEKKLAALEKKTAALEYKLAAL [apCCTri-N] | 3 |
| ELAALKEELAALKEETAALKYELAAL [apCCTri-N′] | 3 |
